From paper doi:10.1101/2025.11.15.688598 (bioRxiv, 2025)

How the values were obtained:
[1] = molecular target: T1, Cy5-labeled proliferating cell nuclear antigen (PCNA) (human, UniProt P12004 1-261, Cy5 maleimide on cysteine(s), positions not stated); assay: single-molecule two-colour fluorescence imaging (Cy3-Cy5 co-localisation, Cy3 photobleaching steps); Cy5-PCNA loaded by RFC on bi-biotinylated lambda DNA on the DNA skybridge; 1 μM PAF15-Cy3 in reaction buffer incubated 10 min, unbound washed out; images 10-15 min after the start of washing; 150 mM potassium glutamate; room temperature (approximately 22°C); settings: both partners purified
[2] = molecular target: T1, Cy5-labeled proliferating cell nuclear …; assay: single-molecule two-colour fluorescence imaging (Cy3-Cy5 co-localisation, FRET, Cy3 photobleaching steps); Cy5-PCNA loaded by RFC on bi-biotinylated lambda DNA on the DNA skybridge; 1 μM PAF15-Cy3 in reaction buffer incubated 10 min, unbound washed out; images 10-15 min after the start of washing; 100 mM potassium glutamate; room temperature (approximately 22°C); settings: both partners purified

T1 sequence (P12004 whole entry): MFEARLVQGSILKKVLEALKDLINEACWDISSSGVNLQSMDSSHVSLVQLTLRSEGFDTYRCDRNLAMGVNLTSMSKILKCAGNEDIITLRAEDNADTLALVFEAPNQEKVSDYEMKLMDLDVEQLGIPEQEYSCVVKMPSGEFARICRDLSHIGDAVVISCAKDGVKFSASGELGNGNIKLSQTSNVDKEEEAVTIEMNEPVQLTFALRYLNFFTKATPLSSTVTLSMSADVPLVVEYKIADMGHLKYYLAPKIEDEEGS

B1: Cy3-labeled PAF15 (Cys54Ser variant, Cy3 at Cys99) (natural protein, human, UniProt Q15004 2-111, looked up)
chain: VRTKADSVPGTYRKVVAARAPRKVLGSSTSATNSTSVSSRKAENKYAGGNPVSVRPTPKWQKGIGEFFRLSPKDSEKENQIPEEAGSSGLGKAKRKACPLQPDHTNDEKE
modifications: Cy3 on Cys99 (maleimide-thiol reaction)
stoichiometry N [1]: 1 PAF15 per PCNA ring | stoichiometry N [2]: 2 PAF15 per PCNA ring
